Assay results: patent US20200308290A1 (AbbVie / Abbott, published 2020)
Like-named read-outs stand apart in the source and are kept apart here.

Tests used:
[1] = target: T1, recombinant human CD25 (IL2-Rα) (human, UniProt P01589 22-213, limits assumed); assay: SPR (BIAcore), antibody captured by anti-human Fc, soluble human CD25 as analyte, n=3
T1 construct: Bought protein; also called recombinant human IL2-Rα; recombinant soluble human CD25
T1 sequence (looked up): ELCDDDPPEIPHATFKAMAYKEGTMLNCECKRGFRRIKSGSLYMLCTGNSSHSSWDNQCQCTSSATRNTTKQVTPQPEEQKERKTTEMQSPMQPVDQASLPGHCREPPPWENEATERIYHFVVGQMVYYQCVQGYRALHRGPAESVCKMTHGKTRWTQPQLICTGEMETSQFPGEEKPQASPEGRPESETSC
Experimental: (§1) For this capture approach, 30 μg/ml of GAHFc was immobilized to achieve a high response unit (20,000 RU) on each flow cell on the Research-grade CMS sensor chip using the BIAcore amine coupling reagents (N-ethyl-N′-dimethylamino-propylcarbodiimide, EDC; N-hydroxysuccinimide, NHS; and ethanolamine HCl, pH 8.5). […] A 3 min association phase of CD25 was followed by a 15 min injection of HBS-P running buffer (10 mM HEPES, 150 mM sodium chloride, 0.005% P-20 surfactant, pH 7.4) to monitor dissociation for each binding cycle, with a different CD25 concentration per cycle. The surface was regenerated with 20 mM HCl at 100 μl/min flow rate at the end of each cycle. […] Double referencing was applied in each analysis to eliminate background responses from reference surface and buffer only control (0 nM). […] Each set of experiments was performed three times to assess the standard deviation of the data.
(§2) Modified antibody proteins were tested for binding affinity using a surface plasmon resonance assay format in a BIAcore device. […] Recombinant soluble human CD25 was flowed over the sensor chip and changes in mass were detected.

[2] = target: T1, recombinant human CD25 (IL2-Rα); assay: as above; remark: listed apart in the source
Experimental: as §1, §2

cynomolgous CD25-HA = target: T2, cynomolgous CD25-HA (cynomolgous monkey, UniProt H6WS54 22-240); assay: SPR (BIAcore), antibody captured by anti-human Fc, cynomolgous CD25-HA as analyte, n=3
T2 construct: also called cynomolgous monkey CD25; cmCD25; not shown: exact C-terminal limit of the PDL BioPharma construct
T2 sequence: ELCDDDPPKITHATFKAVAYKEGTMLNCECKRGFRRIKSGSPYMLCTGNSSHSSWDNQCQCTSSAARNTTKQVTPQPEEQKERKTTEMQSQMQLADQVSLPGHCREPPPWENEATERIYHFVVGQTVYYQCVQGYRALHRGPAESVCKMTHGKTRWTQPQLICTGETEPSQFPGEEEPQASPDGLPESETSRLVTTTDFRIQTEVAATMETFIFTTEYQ

- Kd [1]: 0.375 nM
- Kd [2]: 0.357 nM
- Kd (cynomolgous CD25-HA): 0.371 nM
B1: DAC I48M (antibody, IgG1, name in Kabat numbering, V domains shown)
VH: QVQLVQSGAEVKKPGSSVKVSCKASGYTFTSYRMHWVRQAPGQGLEWMGYINPSTGYTEYNQKFKDKATITADESTNTAYMELSSLRSEDTAVYYCARGGGVFDYWGQGTLVTVSS
VL: DIQMTQSPSTLSASVGDRVTITCSASSSISYMHWYQQKPGKAPKLLIYTTSNLASGVPARFSGSGSGTEFTLTISSLQPDDFATYYCHQRSTYPLTFGQGTKVEVK
notes: E.HAT variant, IgG1/kappa
